Source: the Human Domainome abundance scans (Beltran et al. 2025)
± gives the uncertainty stated by the source.

B1: Tripartite motif-containing protein 6, residues 93 to 134; numbered along this chain, Q9C030 (parent)
chain: KAVLCADHGEKLQLFCQEDGKVICWLCERSQEHRGHHTFLVE

Variants of: B1
Test: abundance fitness (aPCA) (normalised: wild type 0, dead -1); higher = more abundant; growth selection in yeast, the domain comes from the species named
Conditions: Homo sapiens
KAVLCYDHGEKLQLFCQEDGKVICWLCERSQEHRGHHTFLVE [A6Y] showed an abundance fitness of -0.19 ± 0.12.
Work on KAVLCNDHGEKLQLFCQEDGKVICWLCERSQEHRGHHTFLVE [A6N] yielded an abundance fitness of -0.306 ± 0.28.
KAVLCWDHGEKLQLFCQEDGKVICWLCERSQEHRGHHTFLVE [A6W] showed an abundance fitness of -0.48 ± 0.068.
With KAVLCLDHGEKLQLFCQEDGKVICWLCERSQEHRGHHTFLVE [A6L] the abundance fitness was -0.215 ± 0.052.
For KAVLCTDHGEKLQLFCQEDGKVICWLCERSQEHRGHHTFLVE [A6T], the abundance fitness was -0.242 ± 0.087.
With KAVLCIDHGEKLQLFCQEDGKVICWLCERSQEHRGHHTFLVE [A6I] the abundance fitness was -0.321 ± 0.2.
Variant KAVLCSDHGEKLQLFCQEDGKVICWLCERSQEHRGHHTFLVE [A6S] has an abundance fitness of 0.055 ± 0.056.
For KAVLCCDHGEKLQLFCQEDGKVICWLCERSQEHRGHHTFLVE [A6C], the abundance fitness was -0.156 ± 0.073.
KAVLCKDHGEKLQLFCQEDGKVICWLCERSQEHRGHHTFLVE [A6K] gave an abundance fitness of -0.011 ± 0.055.
KAVLCQDHGEKLQLFCQEDGKVICWLCERSQEHRGHHTFLVE [A6Q] gave an abundance fitness of -0.087 ± 0.066.
KAVLCFDHGEKLQLFCQEDGKVICWLCERSQEHRGHHTFLVE [A6F] gave an abundance fitness of -0.158 ± 0.071.
For KAVLCGDHGEKLQLFCQEDGKVICWLCERSQEHRGHHTFLVE [A6G], the abundance fitness was -0.196 ± 0.043.
KAVLCRDHGEKLQLFCQEDGKVICWLCERSQEHRGHHTFLVE [A6R] showed an abundance fitness of -0.035 ± 0.044.
Variant KAVLCPDHGEKLQLFCQEDGKVICWLCERSQEHRGHHTFLVE [A6P] has an abundance fitness of -0.056 ± 0.1.
With KAVLCHDHGEKLQLFCQEDGKVICWLCERSQEHRGHHTFLVE [A6H] the abundance fitness was -0.43 ± 0.47.
Work on KAVLCEDHGEKLQLFCQEDGKVICWLCERSQEHRGHHTFLVE [A6E] yielded an abundance fitness of -0.244 ± 0.11.
KAVLCDDHGEKLQLFCQEDGKVICWLCERSQEHRGHHTFLVE [A6D] gave an abundance fitness of -0.11 ± 0.058.
KASLCADHGEKLQLFCQEDGKVICWLCERSQEHRGHHTFLVE [V3S] showed an abundance fitness of -0.003 ± 0.061.
KAQLCADHGEKLQLFCQEDGKVICWLCERSQEHRGHHTFLVE [V3Q] gave an abundance fitness of -0.306 ± 0.092.
KATLCADHGEKLQLFCQEDGKVICWLCERSQEHRGHHTFLVE [V3T] showed an abundance fitness of 0.005 ± 0.067.
KARLCADHGEKLQLFCQEDGKVICWLCERSQEHRGHHTFLVE [V3R] showed an abundance fitness of -0.273 ± 0.057.
KAYLCADHGEKLQLFCQEDGKVICWLCERSQEHRGHHTFLVE [V3Y] showed an abundance fitness of -0.153 ± 0.21.
KAWLCADHGEKLQLFCQEDGKVICWLCERSQEHRGHHTFLVE [V3W] showed an abundance fitness of -0.353 ± 0.083.
Work on KAVLWADHGEKLQLFCQEDGKVICWLCERSQEHRGHHTFLVE [C5W] yielded an abundance fitness of -1.06 ± 0.12.
KAVLLADHGEKLQLFCQEDGKVICWLCERSQEHRGHHTFLVE [C5L] showed an abundance fitness of -0.999 ± 0.089.
Variant KAVLYADHGEKLQLFCQEDGKVICWLCERSQEHRGHHTFLVE [C5Y] has an abundance fitness of -0.602 ± 0.11.
For KAVLGADHGEKLQLFCQEDGKVICWLCERSQEHRGHHTFLVE [C5G], the abundance fitness was -0.664 ± 0.054.
Work on KAVLEADHGEKLQLFCQEDGKVICWLCERSQEHRGHHTFLVE [C5E] yielded an abundance fitness of -0.615 ± 0.064.
Work on KAVLAADHGEKLQLFCQEDGKVICWLCERSQEHRGHHTFLVE [C5A] yielded an abundance fitness of -1.06 ± 0.14.
Work on KAVLRADHGEKLQLFCQEDGKVICWLCERSQEHRGHHTFLVE [C5R] yielded an abundance fitness of -0.978 ± 0.092.
Work on KAVLTADHGEKLQLFCQEDGKVICWLCERSQEHRGHHTFLVE [C5T] yielded an abundance fitness of -0.954 ± 0.12.
KAVLVADHGEKLQLFCQEDGKVICWLCERSQEHRGHHTFLVE [C5V] gave an abundance fitness of -0.839 ± 0.092.
KAVLHADHGEKLQLFCQEDGKVICWLCERSQEHRGHHTFLVE [C5H] showed an abundance fitness of -0.768 ± 0.32.
For KAVLQADHGEKLQLFCQEDGKVICWLCERSQEHRGHHTFLVE [C5Q], the abundance fitness was -0.812 ± 0.18.
Variant KAVLNADHGEKLQLFCQEDGKVICWLCERSQEHRGHHTFLVE [C5N] has an abundance fitness of -0.922 ± 0.17.
Work on KAVLPADHGEKLQLFCQEDGKVICWLCERSQEHRGHHTFLVE [C5P] yielded an abundance fitness of -0.777 ± 0.11.
For KAVLFADHGEKLQLFCQEDGKVICWLCERSQEHRGHHTFLVE [C5F], the abundance fitness was -0.871 ± 0.21.
For KAVLMADHGEKLQLFCQEDGKVICWLCERSQEHRGHHTFLVE [C5M], the abundance fitness was -0.769 ± 0.12.
Variant KAVLDADHGEKLQLFCQEDGKVICWLCERSQEHRGHHTFLVE [C5D] has an abundance fitness of -0.807 ± 0.21.
For KAVLKADHGEKLQLFCQEDGKVICWLCERSQEHRGHHTFLVE [C5K], the abundance fitness was -0.789 ± 0.12.
In the case of KAVQCADHGEKLQLFCQEDGKVICWLCERSQEHRGHHTFLVE [L4Q], the abundance fitness is reported as -0.272 ± 0.065.
With KAVTCADHGEKLQLFCQEDGKVICWLCERSQEHRGHHTFLVE [L4T] the abundance fitness was -0.066 ± 0.054.
Work on KAVYCADHGEKLQLFCQEDGKVICWLCERSQEHRGHHTFLVE [L4Y] yielded an abundance fitness of 0.047 ± 0.23.
With KAVSCADHGEKLQLFCQEDGKVICWLCERSQEHRGHHTFLVE [L4S] the abundance fitness was -0.217 ± 0.059.
In the case of KAVDCADHGEKLQLFCQEDGKVICWLCERSQEHRGHHTFLVE [L4D], the abundance fitness is reported as -0.223 ± 0.49.
KAVVCADHGEKLQLFCQEDGKVICWLCERSQEHRGHHTFLVE [L4V] showed an abundance fitness of 0.011 ± 0.05.
Variant KAVWCADHGEKLQLFCQEDGKVICWLCERSQEHRGHHTFLVE [L4W] has an abundance fitness of -0.199 ± 0.047.
Variant KAVECADHGEKLQLFCQEDGKVICWLCERSQEHRGHHTFLVE [L4E] has an abundance fitness of -0.126 ± 0.066.
Variant KAVRCADHGEKLQLFCQEDGKVICWLCERSQEHRGHHTFLVE [L4R] has an abundance fitness of -0.082 ± 0.043.
Variant KAVFCADHGEKLQLFCQEDGKVICWLCERSQEHRGHHTFLVE [L4F] has an abundance fitness of 0.141 ± 0.09.
KAVCCADHGEKLQLFCQEDGKVICWLCERSQEHRGHHTFLVE [L4C] showed an abundance fitness of -0.189 ± 0.09.
KAVGCADHGEKLQLFCQEDGKVICWLCERSQEHRGHHTFLVE [L4G] gave an abundance fitness of -0.175 ± 0.041.
For KAVKCADHGEKLQLFCQEDGKVICWLCERSQEHRGHHTFLVE [L4K], the abundance fitness was -0.148 ± 0.085.
In the case of KAVMCADHGEKLQLFCQEDGKVICWLCERSQEHRGHHTFLVE [L4M], the abundance fitness is reported as 0.195 ± 0.064.
KAVNCADHGEKLQLFCQEDGKVICWLCERSQEHRGHHTFLVE [L4N] gave an abundance fitness of 0.224 ± 0.19.
For KAVACADHGEKLQLFCQEDGKVICWLCERSQEHRGHHTFLVE [L4A], the abundance fitness was -0.165 ± 0.051.
Work on KAVLCALHGEKLQLFCQEDGKVICWLCERSQEHRGHHTFLVE [D7L] yielded an abundance fitness of 0.132 ± 0.058.
KAVLCAGHGEKLQLFCQEDGKVICWLCERSQEHRGHHTFLVE [D7G] showed an abundance fitness of -0.291 ± 0.043.
In the case of KAVLCAKHGEKLQLFCQEDGKVICWLCERSQEHRGHHTFLVE [D7K], the abundance fitness is reported as -0.007 ± 0.061.
In the case of KAVLCAIHGEKLQLFCQEDGKVICWLCERSQEHRGHHTFLVE [D7I], the abundance fitness is reported as -0.034 ± 0.25.
